Source: patent publication CN112778416A (KANGYUAN MEDICAL TECH DALIAN CO LTD, dated 2021)
Where a chain is given by its changes, count along the chain named. Blank lines part the entries; values can stand above or below the binder they belong to.

What was measured:
白介素-6 (IL-6) [1] = biological target: T1, 白介素-6 (IL-6) (UniProt P05231 30-212); assay: SPR, IL-6 amine-coupled to CM5 chip, polypeptide injected
T1 construct: also called Interleukin-6; 抗原IL-6

白介素-6 (IL-6) [2] = biological target: T1, 白介素-6 (IL-6); assay: SPR, IL-6 amine-coupled to CM5 chip, nanobody injected

B1: 人源化二价多肽hbvCNb20-1 (VHH)
chain: EVQLVESGGGSVQAGGSLRLSCAASSGILEIFNAMSWFRQAPGKEREWVSAIMGSPYGSTEYYADSVKGRFTFSQDNAKNTVYLQMDSLRPEDTATYYCHSAGYDPRGDDYWGQGTLVTVSSGGGGSGGGGSGGGGSEVQLVESGGGSVQAGGSLRLSCAASSGILEIFNAMSWFRQAPGKEREWVSAIMGSPYGSTEYYADSVKGRFTFSQDNAKNTVYLQMDSLRPEDTATYYCHSAGYDPRGDDYWGQGTLVTVSS
Kd (白介素-6 (IL-6) [1]): 80.7 pM
koff (白介素-6 (IL-6) [1]): 0.000184 s⁻¹

B4: 纳米抗体CNb20-2 (VHH)
VHH: QVQLVESAGGLVQPGGSLRLSCAASGRFTGGSPMGWYRQAPGKRRELVADIMGRGGSNTYADSVKGRFTISRDNAKNTVYLQMNSLKPEDTAVYYCAEAERVSGLLLEVVAEPRGDDYWGQGTQVTVSS
Kd (白介素-6 (IL-6) [2]): 42.3 pM

Continued by falling Kd (白介素-6 (IL-6) [2]), values first:

Kd (白介素-6 (IL-6) [2]): 99.5 pM
B3: 人源化纳米抗体hCNb20-1 (VHH)
VHH: EVQLVESGGGSVQAGGSLRLSCAASSGILEIFNAMSWFRQAPGKEREWVSAIMGSPYGSTEYYADSVKGRFTFSQDNAKNTVYLQMDSLRPEDTATYYCHSAGYDPRGDDYWGQGTLVTVSS
notes: Humanised variant of CNb20-1, purified on Ni Sepharose

Kd (白介素-6 (IL-6) [2]): 11.1 pM
B2: 纳米抗体CNb20-1 (VHH)
VHH: B3 VHH with E1Q, V5Q, S36A, S50A, A51R, R90E, L117Q
